Binding signal (PBM E-score (-0.5 to 0.5)) data for 26 sequences are collected here from publication PMC3334620.

For data set [1], the target named is T1, Cad1 (Saccharomyces cerevisiae) (UniProt P24813).
T1 sequence: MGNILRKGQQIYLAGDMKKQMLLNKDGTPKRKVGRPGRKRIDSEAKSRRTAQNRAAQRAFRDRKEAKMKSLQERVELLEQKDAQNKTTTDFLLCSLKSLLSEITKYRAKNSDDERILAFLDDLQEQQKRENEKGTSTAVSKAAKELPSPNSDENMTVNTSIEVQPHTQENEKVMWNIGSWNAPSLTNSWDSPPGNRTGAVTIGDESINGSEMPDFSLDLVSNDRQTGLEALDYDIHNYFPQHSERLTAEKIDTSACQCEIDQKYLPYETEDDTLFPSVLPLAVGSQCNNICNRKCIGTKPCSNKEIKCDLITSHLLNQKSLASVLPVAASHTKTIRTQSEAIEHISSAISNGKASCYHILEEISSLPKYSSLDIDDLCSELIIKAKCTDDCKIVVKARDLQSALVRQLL
As to conditions: 100 nM.

Data set [2] addresses T2, Yer184c (Saccharomyces cerevisiae) (UniProt P39961).
T2 sequence: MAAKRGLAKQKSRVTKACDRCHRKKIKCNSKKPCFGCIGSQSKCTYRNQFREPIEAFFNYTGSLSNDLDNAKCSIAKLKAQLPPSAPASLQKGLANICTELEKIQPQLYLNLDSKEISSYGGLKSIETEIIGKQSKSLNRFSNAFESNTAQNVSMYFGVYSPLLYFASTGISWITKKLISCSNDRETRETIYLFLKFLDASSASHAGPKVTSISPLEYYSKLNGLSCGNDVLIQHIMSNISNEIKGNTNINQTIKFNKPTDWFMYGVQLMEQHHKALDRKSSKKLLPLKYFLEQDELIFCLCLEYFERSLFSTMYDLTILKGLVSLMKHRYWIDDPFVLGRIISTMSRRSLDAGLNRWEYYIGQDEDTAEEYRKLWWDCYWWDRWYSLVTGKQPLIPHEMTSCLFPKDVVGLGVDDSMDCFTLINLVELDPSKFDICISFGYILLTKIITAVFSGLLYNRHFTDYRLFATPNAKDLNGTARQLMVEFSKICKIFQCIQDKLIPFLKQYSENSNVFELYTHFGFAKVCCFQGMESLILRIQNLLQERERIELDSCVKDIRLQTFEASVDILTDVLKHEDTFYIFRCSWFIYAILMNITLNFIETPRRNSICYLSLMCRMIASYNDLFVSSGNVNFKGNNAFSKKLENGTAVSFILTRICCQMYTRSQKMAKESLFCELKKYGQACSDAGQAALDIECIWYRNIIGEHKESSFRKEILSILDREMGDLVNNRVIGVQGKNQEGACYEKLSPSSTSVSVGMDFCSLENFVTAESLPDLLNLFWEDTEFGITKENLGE
The following applies: 100 nM.

For data set [3], the target named is T3, Pdr3 (Saccharomyces cerevisiae) (UniProt P33200).
T3 sequence: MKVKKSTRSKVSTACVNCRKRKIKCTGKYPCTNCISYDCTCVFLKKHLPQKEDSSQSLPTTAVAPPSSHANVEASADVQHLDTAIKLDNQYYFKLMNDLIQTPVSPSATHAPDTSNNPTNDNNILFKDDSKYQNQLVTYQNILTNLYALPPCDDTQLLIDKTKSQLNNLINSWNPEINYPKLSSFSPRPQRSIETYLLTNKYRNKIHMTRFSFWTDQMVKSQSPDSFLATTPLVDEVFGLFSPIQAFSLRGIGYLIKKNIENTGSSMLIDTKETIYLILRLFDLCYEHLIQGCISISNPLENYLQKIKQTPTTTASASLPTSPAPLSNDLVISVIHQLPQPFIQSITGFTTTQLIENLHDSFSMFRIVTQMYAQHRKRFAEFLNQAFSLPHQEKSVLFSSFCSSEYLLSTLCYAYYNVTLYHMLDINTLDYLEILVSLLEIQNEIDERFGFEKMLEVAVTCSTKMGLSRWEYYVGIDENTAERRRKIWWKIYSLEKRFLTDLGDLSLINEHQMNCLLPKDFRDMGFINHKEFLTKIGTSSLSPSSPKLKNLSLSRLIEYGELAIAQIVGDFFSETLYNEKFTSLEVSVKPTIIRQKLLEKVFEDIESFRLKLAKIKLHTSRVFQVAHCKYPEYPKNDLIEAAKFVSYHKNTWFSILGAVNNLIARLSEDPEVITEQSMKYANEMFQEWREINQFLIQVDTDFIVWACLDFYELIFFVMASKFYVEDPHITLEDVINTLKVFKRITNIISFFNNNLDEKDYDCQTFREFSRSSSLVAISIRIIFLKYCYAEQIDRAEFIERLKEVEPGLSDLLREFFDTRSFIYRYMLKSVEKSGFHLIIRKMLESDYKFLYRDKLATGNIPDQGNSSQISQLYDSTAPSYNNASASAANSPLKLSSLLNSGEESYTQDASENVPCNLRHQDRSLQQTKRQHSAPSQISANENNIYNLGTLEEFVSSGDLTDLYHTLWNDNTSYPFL
The following applies: 200 nM.

Data set [4] deals with T4, Cin5 (Saccharomyces cerevisiae) (UniProt P40917).
T4 sequence: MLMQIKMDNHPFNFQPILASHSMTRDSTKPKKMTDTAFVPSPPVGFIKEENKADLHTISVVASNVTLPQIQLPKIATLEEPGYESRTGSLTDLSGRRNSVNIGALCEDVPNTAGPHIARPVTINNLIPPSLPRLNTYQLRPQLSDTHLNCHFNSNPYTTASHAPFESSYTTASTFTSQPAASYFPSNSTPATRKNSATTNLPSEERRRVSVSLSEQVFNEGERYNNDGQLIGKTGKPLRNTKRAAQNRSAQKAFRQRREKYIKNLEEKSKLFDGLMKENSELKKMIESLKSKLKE
As to conditions: 100 nM.

Data set [5] addresses T5, Sko1 (Saccharomyces cerevisiae) (UniProt Q02100).
T5 sequence: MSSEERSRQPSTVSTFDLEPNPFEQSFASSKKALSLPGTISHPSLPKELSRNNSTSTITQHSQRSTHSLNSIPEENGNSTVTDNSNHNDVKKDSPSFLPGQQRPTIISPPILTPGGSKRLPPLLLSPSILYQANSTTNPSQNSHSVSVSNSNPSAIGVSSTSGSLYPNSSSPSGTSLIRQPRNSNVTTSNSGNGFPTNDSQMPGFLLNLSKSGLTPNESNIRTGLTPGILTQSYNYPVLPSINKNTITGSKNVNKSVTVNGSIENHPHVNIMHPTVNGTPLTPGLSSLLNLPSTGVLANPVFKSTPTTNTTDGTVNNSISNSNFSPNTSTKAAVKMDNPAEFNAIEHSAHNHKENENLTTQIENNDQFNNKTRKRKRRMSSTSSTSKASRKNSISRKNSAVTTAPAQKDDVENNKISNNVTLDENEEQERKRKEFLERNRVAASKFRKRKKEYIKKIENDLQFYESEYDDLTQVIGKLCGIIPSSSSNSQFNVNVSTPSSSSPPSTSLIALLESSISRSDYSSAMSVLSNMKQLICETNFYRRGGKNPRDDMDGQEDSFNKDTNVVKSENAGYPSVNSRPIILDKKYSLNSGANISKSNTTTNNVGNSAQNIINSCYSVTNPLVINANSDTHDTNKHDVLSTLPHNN
As to conditions: 200 nM.

The target in data set [6] is T6, Sut1 (Saccharomyces cerevisiae) (UniProt P53032).
T6 sequence: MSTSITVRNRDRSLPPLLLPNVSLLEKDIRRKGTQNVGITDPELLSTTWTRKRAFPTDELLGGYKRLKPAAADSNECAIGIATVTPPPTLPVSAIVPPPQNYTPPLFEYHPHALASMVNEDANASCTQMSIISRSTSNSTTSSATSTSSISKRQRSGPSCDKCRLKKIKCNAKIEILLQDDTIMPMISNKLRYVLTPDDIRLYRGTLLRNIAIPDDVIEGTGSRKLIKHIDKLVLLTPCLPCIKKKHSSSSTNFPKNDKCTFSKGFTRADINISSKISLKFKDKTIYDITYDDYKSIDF
The following applies: 200 nM.

Data set [7] has as its target T7, Yap3 (Saccharomyces cerevisiae) (UniProt P38749).
T7 sequence: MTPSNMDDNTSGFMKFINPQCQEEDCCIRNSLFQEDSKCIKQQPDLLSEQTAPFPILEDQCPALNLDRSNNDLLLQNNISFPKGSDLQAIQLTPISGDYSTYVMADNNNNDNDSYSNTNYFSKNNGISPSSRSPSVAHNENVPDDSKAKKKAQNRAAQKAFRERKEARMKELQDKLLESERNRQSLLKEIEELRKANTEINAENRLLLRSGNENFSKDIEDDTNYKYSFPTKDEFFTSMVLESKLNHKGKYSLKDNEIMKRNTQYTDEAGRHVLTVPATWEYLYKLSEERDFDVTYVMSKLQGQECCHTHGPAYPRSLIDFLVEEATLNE
As to conditions: 100 nM.

In data set [1], “ATTTGTCA (double strand) [8-mer ATTTGTCA]” returned a binding signal (PBM E-score (-0.5 to 0.5)) of 0.465.

Turning to “TTCCGGAA (double strand) [8-mer TTCCGGAA]”, the binding signal (PBM E-score (-0.5 to 0.5)) is 0.467 in data set [2] and 0.492 in data set [3].

As for “CTTACTAA (double strand) [8-mer CTTACTAA]”, in data set [1], the binding signal (PBM E-score (-0.5 to 0.5)) was found to be 0.484.

As for “ACGTAATA (double strand) [8-mer ACGTAATA]”, the figures for the binding signal (PBM E-score (-0.5 to 0.5)) in data set [4] and in data set [5] were 0.455 and 0.493, respectively.

On to “TATCCGGA (double strand) [8-mer TATCCGGA]”, for which the binding signal (PBM E-score (-0.5 to 0.5)) in data set [2] turned out to be 0.454.

For the sequence “TCCGCGGA (double strand) [8-mer TCCGCGGA]”, the binding signal (PBM E-score (-0.5 to 0.5)) amounted to 0.481 in data set [2] and 0.5 in data set [3].

The sequence “GCCGCGGC (double strand) [8-mer GCCGCGGC]” registered a binding signal (PBM E-score (-0.5 to 0.5)) in data set [2] of 0.475.

“CTTAGTAA (double strand) [8-mer CTTAGTAA]”: the binding signal (PBM E-score (-0.5 to 0.5)) in data set [1] was determined as 0.471.

With “ACTCCGGA (double strand) [8-mer ACTCCGGA]”, the binding signal (PBM E-score (-0.5 to 0.5)) in data set [2] amounted to 0.459; in data set [6], 0.495.

Turning to “ATTACTAA (double strand) [8-mer ATTACTAA]”, the binding signal (PBM E-score (-0.5 to 0.5)) in data set [1] came out at 0.492; in data set [7], 0.479.

Take “TGACGTAA (double strand) [8-mer TGACGTAA]”: the binding signal (PBM E-score (-0.5 to 0.5)) in data set [4] was determined as 0.453; in data set [5], 0.498.

As for “CGCCGGCG (double strand) [8-mer CGCCGGCG]”, the binding signal (PBM E-score (-0.5 to 0.5)) in data set [2] was 0.485.

As for “ATTACGTA (double strand) [8-mer ATTACGTA]”, the figures for the binding signal (PBM E-score (-0.5 to 0.5)) in data set [4], in data set [5] and in data set [7] were 0.49, 0.497 and 0.478, respectively.

“ACGTAATC (double strand) [8-mer ACGTAATC]”: the binding signal (PBM E-score (-0.5 to 0.5)) in data set [4] amounted to 0.496; in data set [7] it was 0.462.

Turning to “TTACGTAA (double strand) [8-mer TTACGTAA]”, the binding signal (PBM E-score (-0.5 to 0.5)) turned out to be 0.497 in data set [4], 0.496 in data set [5], 0.48 in data set [1] and 0.496 in data set [7].

For the sequence “CTGACTAA (double strand) [8-mer CTGACTAA]”, the binding signal (PBM E-score (-0.5 to 0.5)) in data set [1] was 0.488.

Consider “CCGGAAAA (double strand) [8-mer CCGGAAAA]”, for which the binding signal (PBM E-score (-0.5 to 0.5)) in data set [2] worked out at 0.46.

The sequence “CCGGCCGG (double strand) [8-mer CCGGCCGG]” gave a binding signal (PBM E-score (-0.5 to 0.5)) in data set [2] of 0.486.

Consider “CTTACGTA (double strand) [8-mer CTTACGTA]”, for which the binding signal (PBM E-score (-0.5 to 0.5)) in data set [4] was 0.472.

“ATTAGTCA (double strand) [8-mer ATTAGTCA]” registered a binding signal (PBM E-score (-0.5 to 0.5)) in data set [1] of 0.491.

For the sequence “TCGGCCGA (double strand) [8-mer TCGGCCGA]”, the binding signal (PBM E-score (-0.5 to 0.5)) in data set [2] was 0.473.

For the sequence “ATTAATAA (double strand) [8-mer ATTAATAA]”, in data set [1], the binding signal (PBM E-score (-0.5 to 0.5)) was 0.46.

As to “GTCCGGAC (double strand) [8-mer GTCCGGAC]”, the binding signal (PBM E-score (-0.5 to 0.5)) in data set [2] came to 0.464.

For “ACGTAAGC (double strand) [8-mer ACGTAAGC]”, the binding signal (PBM E-score (-0.5 to 0.5)) in data set [4] amounted to 0.483.

As for “CGTAAGCA (double strand) [8-mer CGTAAGCA]”, the binding signal (PBM E-score (-0.5 to 0.5)) in data set [4] was 0.463.

Consider “ATTAGTAA (double strand) [8-mer ATTAGTAA]”, for which the binding signal (PBM E-score (-0.5 to 0.5)) was determined as 0.49 in data set [1] and 0.487 in data set [7].
